Measurements published in patent CN107236025A, “与cd56分子特异性结合的多肽及其应用” (GUANGZHOU YIDAI PHARMACEUTICAL TECHNOLOGY Co Ltd, priority 2017, dated 2017).

How the values were obtained:
[1] = tested on: U2 OS细胞; assay: Cytotoxicity test (CCK8) on U2 OS cells; type: cell-based; settings: 0.1-100 μg/ml peptide, 72 h; versus medium without peptide; Fig. 5
[2] = In vivo metabolism and distribution in mouse by fluorescence imaging; design: species or system 小鼠
[3] = female mouse, tail vein, 400 ul of 1 mg/ml, Fig. 7

Molecule: SSVLTKWYLVCWSLGESISNERRKNFHLVGHWGCLRKLTFVVE [7号多肽]
- Toxicity to U2 OS cells (cell viability, CCK8) [1]: 没有毒性作用

B1: SSVYCKQTNKKKRKERKRDTGMKGDIIGTGVNDLAPLRGPIKASTMVAVAQDMAGTGADFLFL (peptide)
chain: SSVYCKQTNKKKRKERKRDTGMKGDIIGTGVNDLAPLRGPIKASTMVAVAQDMAGTGADFLFL
- Distribution of peptide fluorescence after 1 h [2, 3]: 逐渐富集到小鼠肝、肾和肠
- Distribution of peptide fluorescence after 3.5 h [2, 3]: 只留存于肝脏和肠腔
- Route of metabolism ([2]; female mouse, tail vein, concluded from fluorescence imaging): 主要经过肝脏代谢
- Peptide residue in liver, spleen, lung and kidney (frozen sections, confocal) ([2]; mouse, after 3.5 h of imaging, Fig. 8): 各个脏器均有少量的多肽残留
- Toxicity to U2 OS cells (cell viability, CCK8) [1]: 没有毒性作用
